Laboratory results taken from US10155985B2, “Evaluation of eosinophilic esophagitis” (CHILDREN'S HOSPITAL MEDICAL CENTER, priority 2004, dated 2018).

B1: SEQ_ID_#19 (nucleic acid, listed as Homo sapiens)
DNA: ATGGCCTGGACCCCTCTGCTCCTCATGTTCCTCTCTCATTGCTCAGGTGAGAACTGGTTTTAGGTGTCTAGGGTTAGCTCCTTAGCTTGCGTCAGCCTCTCTGGCTCAGATCCCCAAGACATGTATCTCTAGTTCCTGCCCCAGCCCCCATGAGTGTCTGTGCTTGCAGGTTCCCTCTCCCAGCCTGTGCTGACTCAGATGACCTCACTCTCTGCATCTCCGGGAGCATGAGCCAGACTTACCTGCACCCTGAGCAGTGGCTTCAGAGTTGGTAACTTTGCAATATAGTGGTCAGCTGAAGCCAGGCAGCCGTCCCAGGTGTCTCCTGAGATACTACTCAGACTCAAATATCACTCAGCACCCTGGGGTTCCCATCCACTTCTCTGGATCCAATGATACATTAGCCAATGCAGGGATTCTGTACATTCCTGGGCTGAAGCCTGAGGGTGAGGCTATTACTGTTGTACGTGTCACAGCAGCTCCAAGT
B2: SEQ_ID_#142 (nucleic acid, listed as Homo sapiens)
DNA: TAGAGGTTAAATGACCCCATTTGTGGGGTGGTTTATTGTTAAAATGATTAAACATGCTAAAATCACATGGAGTGGCTATTCCACTTTTGCCCTGACTCCATAGTGGGGCAAATGGGAACTACAGGAGTCACTTGGTTTGTGTGGCCTCTGGGGATGGTTAGACTTGGAGGGTTAGCGGTGAGCAGGTTAGCAAAGCCCCAAGCATCCTTCATGTAGTACACTTTTCCCAGCAGTAAAAAAATTCAGAGATTTCCCCCTTCTTCACTTTTCTTTCCTCCCTATATGTGCCCTACTTCTCATTCTCCTATGGCCCTGGAACCTCTTATGCTTCTGCCCGTTATGGTCTTAGACTAGATGATGAGGGAGGCTTTTCCTTGACACCAGCATTCCAGTCT
B3: SEQ_ID_#185 (nucleic acid, listed as Homo sapiens)
DNA: AATAATTAATGCAATTTAATGACAATAAATAAACTTCAAAGTCCCGCCAAAACCAGCAGAACCTCATCAAAGCAAAAGAAACAAGCTTCTTTCCAGCTCAGAGGTGAAGCGCTGCAGATGGCCAGTGTTTCATCTCGAGGGGAGGGTTGGGAAAGGCTGTGGAATGAGGG
B4: SEQ_ID_#95 (nucleic acid, listed as Homo sapiens)
DNA: TTTTTTTTTTTTTTTTGTAATAAGAAAAAATTTTAGTAAAAGAAAATTCTCACAAAGTTTTTAGTAAATGAGATTATGTTCATGAATGTGTTTGGTAAACTGTAACTCCACAGGGCAGCTCCAAGTCATGAGTGTGCAGTTGGGCTCAAACCGTACAGAAGTCATTTCCAGGATGTTATCCTTACTCTTCTAGGAGCCCACATCGCCCAGATGAGGAAGGCCACCGCTGCCGCCAACGCCGACTACCGTGAGCAGCTTCCTGCTCCCCTGTCGTCGCCTCTGCGGTCGGGGCACTTTCCCCAAAGCGCT
B5: SEQ_ID_#165 (nucleic acid, listed as Homo sapiens)
DNA: CCAAAAAGTCAGTTGATATGACACAGTCACAGACAGAACAGTCAGCAGCCCAAGAAAGGTCCTCACGGCTGCTGTGCTGGGTAGCACTTGCCATCCAGTTTCTAGAGTGATGAAATGCTCTGTCTGTACCGTTCAATACAGTAGGCACTGGCACTAGCCACATGTGCCAGCTAAGCACTTGAAATGTGGCCAGTGCAATAAGGAATTGAACTTTTAATTGCATTTAATAAACTGTATGTAAATAG
B6: SEQ_ID_#116 (nucleic acid, listed as Homo sapiens)
DNA: TGTAAGTATTTACTTTTAATTCTACTTTCAGGTGGAAAATGATGAGAACTCCTTAGGGGGTCTTTAATCTCAAGATTGTCAGTCTAGCTAAATATAATTAAAAGACTGCCTTCTGTGTTTACTGCTGAATAATGATGAGAAAAAATAGTGTAATTTTTTTAATGTTTGCTAACCAGGTTCTCCATAGACAACTTTAGTCAGTGGTCATAATATTGTAGATTTAGCTGCAAATTTAAGAGGTGAGAAAAGGAATATGTTTGTTCCTAGGTTTGTTCTAATCAGACCAATTCAAAGTTAATATTGCAAGGCTATACAACATCTATCTCATCCAAATTGTTGTTTTATAGCTTTCAAACATCCTTTTTAACTTCTCTGCTCTGCCACTCATCATTCCATTAGGGCAAAAAGAAACAAAACTTAAGCTTTGAAGCTCATTAGATACATACTTTAAAAAATAGATCAAAATAAGCAAAAAGTACAATTTGTATTATCTGCATGAGTTTCTAGTTATCAGTGACCTAAGCTAAGTCTGGCTTTTAGTAGCAAGATTTTAGCATACCAGGCTCTCAAGGGAGGTATTTCTCAGTATTATTTCAATTTTTAAAGGATAAAGACATGTTCTAATTTAAATTTATTGAAATTTGATAATCCATGTGACTTTTCAGTACTGTGCTTGGTGCTTTAGATGGAAATAGGATAAATATCTGACTCAATCATCCAGGAGTCATGATACATACTTTACAATCTGATTTA
B7: SEQ_ID_#1002 (nucleic acid, listed as Homo sapiens)
DNA: CCACCGCCTATCCCAAAACCTATAAGAACCAATGATAATCCCACTACCCTTTGATGACTCTCTTTTTGGACTCAGCCCGCCTGCACCCAGGTGAAATAAACAGCCTCGTTGCTCACACAAAGCCTGTTTGGTGGTCTCTTCACACGGACGCATGAGACATTTGGTGCCGAAGACCCGGGTCAGCGGGACTCCTTCGGGACAGCAGTCCCCTGTCCTCACCTTCACTCCCTGAAGAGATCCACCTACAACCTCAGGTCCGCAGACCAACCAGCCCAAGGAACATCTCACTGATTTTAAATTGGACTCTCTTCACACGGGCGAGTGTGACATTTGGTGCCGAAGACCCAGGACAGGAGGACTCCTTTGGGAGACCGGTCTCCTGTCCTCGCCCTCACTCCGTGAGGAGATCCACCTGCAACCTCAGGTCCTCAGACCAACCAGCCGAAGGAACATCTCACCAATTTCAAATGGGCTTAGCGGCTGAAGACTGATGCTGCCTGGTCGCCTCGGAAGCCCCCTGGACCATCATGGACGCCGAGCTTCGGGTAACTCTCACAGTGGAGGCCTGTTTGGTGACTTTCTTCGCACCGACGTGCGTGACACAATGTTTGCAGAATATGAAGGTGGCTGTCACGTGGTCTGGGCTTCCTGGAGGTTTGAGCTGGGAGCTGAAGCCCCGTAGGAGTTCTGTAAGTCAAAAGGGAAGAGAAGAGCATTCCACGTAGAGAAAAGAATCTGTGCTCCAGGCGCGGTGGCTCACGATTGTAATCTCAGCACTTGGTGTCAGGCCTCTGAGCCCAGGCTAAGCCATTGTATATCCCCCGTGACCTGCATGTATACATCCAGATGGCCTGAAGCAGCTGAAGAACCACAAGAGAAGTGAAAATAGCCAGTTCCTGCCTTAACTGATGTCATTCCACCATTGTGATTTGTTCCTGTCCCACCTTTACTGATCAATTAACTTTGTGACATTTCTTCTCCTGGACAATGAGTCTCATGATCTCCCTACCCAGCACCTTGTGACCCCTGCCCCTGCCCGCAAGAGATAACCATCTTTAACTGTAACTTTCCACTACCTACCTAAATCCTGTAAAAACTGACCCACCCCCTATCTCCCTTTGCTGACTCCTTTTTCGGACTCAGCCCGCCTGCACCCAGGTGATTAAAAAGCTTTATTGTTCACATG
B8: SEQ_ID_#1005 (nucleic acid, listed as Homo sapiens)
DNA: ATAGATTCTGCAGCATGGCAAACAGGTAATACTTAAAGCCAAATGGCGCTTCGGCTTATTTCAATACTATTTTTATGTAAAGATCAGTGTGAGAATATCAGCTCAATGGTTGAGGTTCTAGGATCAATTGCCTTGCAGTTTTTATACTAGCTTTTGATATCTTTTGCCTATTAAAACACTTTGTGAACTTTAGAATTAAGGAACTAAAAAATATTTACCATAAGTCCAAGTTATGACTTGAGGATCATATCTGATTAGAACTGTGGCAGAACTACTAGAAAAAGATTCTGCAAATTGGTTTCAGTGATTCTTGTTGATGTAATCAACAAGATTACATAATCAACAATAATAGATATTGAACCAAAATGATCCTTTTTTTAAGTTTAAGGTTATTTAGTTTCTCTTGCAAGGATATGATTTAGTCCTAATAGGGAATATGTGTATGTACTGGTGGGGAGCAGTGGGCTTGCTGCATGTATGTATGTTTTAAAATTAATAAATATTATCTTACTGGGCTCCATAGATGGTTTAAATTTAGATTTATTTAATTAAGAGGCTATAAATAATATATACACTACTGTATGGTATTTAACAAATAAGTTTTAAATCTGTTAATTCTTCTGGAAAACTTTGGATGTAGGGATGGCAAGCTAATTTTCTTGTATAGCTGGTGATATAAGCAGCATGGTCATAAAATAACATTTCTTATAAAGAC
B9: SEQ_ID_#1069 (nucleic acid, listed as Homo sapiens)
DNA: GCCGCCTCCTCCTGGGCTGGGCCCGCGGTGTCTCGTCCCCTCGCGGAGCCGCTCCTGCCGCCGCCGCCGCCGCCTCCTCATTCATCCTCGTGCACCATAGGCGGCACAGGCACCAAGATGTCCAACCGAGTGGTCTGCCGAGAAGCCAGTCACGCCGGGAGCTGGTACACAGCCTCAGGACCGCAGCTGAATGCACAGCTAGAAGGTTGGCTTTCACAAGTACAGTCTACAAAAAGACCTGCTAGAGCCATTATTGCCCCCCATGCAGGATATACGTACTGTGGGTCTTGTGCTGCCCATGCTTATAAACAAGTGGATCCGTCTATTACCCGGAGAATTTTCATCCTTGGGCCTTCTCATCATGTGCCCCTCTCTCGATGTGCACTTTCCAGTGTGGATATATATAGGACACCTCTGTATGACCTTCGTATTGACCAAAAGATTTACGGAGAACTGTGGAAGACAGGAATGTTTGAACGCATGTCTCTGCAGACAGATGAAGATGAACACAGTATTGAAATGCATTTGCCTTATACAGCTAAAGCCATGGAAAGCCATAAGGATGAGTTTACCATTATTCCTGTACTGGTTGGAGCTCTGAGTGAGTCAAAAGAACAGGAATTCGGAAAACTCTTCAGTAAATATCTAGCGGATCCTAGTAATCTCTTTGTGGTTTCTTCTGATTTCTGCCATTGGGGTCAAAGGTTCCGTTACAGTTACTATGATGAATCCCAGGGGGAGATTTATAGATCCATTGAACATCTAGATAAAATGGGTATGAGTATTATAGAACAATTAGACCCTGTATCTTTTAGCAATTACTTGAAGAAATACCATAATACTATATGTGGAAGACATCCCATTGGGGTGTTATTAAATGCTATCACAGAGCTCCAGAAGAATGGAATGAATATGAGTTTTTCGTTTTTGAATTATGCCCAGTCGAGCCAGTGTAGAAACTGGCAAGACAGTTCAGTGAGTTATGCAGCTGGAGCACTCACGGTCCACTGAAGCTCTGAATCCTCAGGGATGCCACCTGCACATTCTCATACTCTGTCCGGGGTCCCAGCCTAGCCTTTACCACGATACTGGTCCTGGTTTGGGGGGATTCTGAAACCTCAAACTAATAGAACTTTCTTCTCTTTTTTTCTAGTAGGTGTAGTCCTTCCTTAATTTCAACTCATTAAAAAATGCTTTATAGTTTAGGGCAGTGGAAGGAAGGCTGGCATCAAAATATTTTGATCAAAAAAGATGACAATGTAAAGGCTCAGTTGTGGCAGACAGTTTTTT

The molecules below were run on EE transcriptome (assay: Genome-wide microarray transcript profiling of esophageal biopsies, EE patients vs normal individuals (EE transcriptome)). Details: transcript level in esophageal biopsies of EE patients (n=76) compared to normal individuals (n=13); Affymetrix Human Genome U133 plus 2; p<0.01.
Outline: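 Distal esophageal biopsies from EE patients (n=76; >24 eosinophils/hpf, basal hyperplasia) and normal controls (n=13; 0 eosinophils/hpf) profiled on Affymetrix Human Genome U133 plus 2 chips. Expression by absolute call and average difference, global scaling; transcriptome genes defined as p<0.01 (Welch t-test) and ≥1.5-fold change.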

| Molecule | Fold Change |
| --- | --- |
| B1 | 10.29 |
| B2 | 2.896 |
| B3 | 2.62 |
| B4 | 3.633 |
| B5 | 2.732 |
| B6 | 3.363 |

Same assay, conditions: transcript level in esophageal biopsies of EE patients compared to normal individuals (NL); Affymetrix Human Genome U133 plus 2; p<0.01; >1 up-regulated, <1 down-regulated

| Molecule | Fold Change |
| --- | --- |
| B7 | 0.612 |
| B8 | 0.61 |
| B9 | 0.587 |
